In article PMC9482650, “Quantitative fragmentomics allow affinity mapping of interactomes” (Nature Communications, 2022):

Experiments:
Experiment in all cases: holdup assay
Parameters in all cases: key: below the threshold = too weak to quantify, mostly under pKd 3.1 to 4
[1] = target: GRID2IP_2, A4D2P6
[2] = target: TJP1_3, Q07157
[3] = target: GRIP2_5, Q9C0E4
[4] = target: T1, NHERF3_1, Q5T2W1
T1 sequence (Q5T2W1 4-100, limits assumed, looked up): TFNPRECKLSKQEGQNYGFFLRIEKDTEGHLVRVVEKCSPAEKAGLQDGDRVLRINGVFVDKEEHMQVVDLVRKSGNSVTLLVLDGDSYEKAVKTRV

[5] = target: GRIP2_6, Q9C0E4
Sequence of GRIP2_6, Q9C0E4 (Q9C0E4 648-740): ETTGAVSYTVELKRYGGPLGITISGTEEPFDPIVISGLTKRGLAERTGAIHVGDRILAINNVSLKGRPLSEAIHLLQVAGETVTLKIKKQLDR

[6] = target: T2, APBA1_2, Q02410
T2 sequence (Q02410 742-832, limits assumed, looked up): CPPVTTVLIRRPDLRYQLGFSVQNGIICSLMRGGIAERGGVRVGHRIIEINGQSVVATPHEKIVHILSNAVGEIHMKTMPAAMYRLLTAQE

[7] = target: MAGI2_5, Q86UL8
Sequence of MAGI2_5, Q86UL8 (Q86UL8 915-1017): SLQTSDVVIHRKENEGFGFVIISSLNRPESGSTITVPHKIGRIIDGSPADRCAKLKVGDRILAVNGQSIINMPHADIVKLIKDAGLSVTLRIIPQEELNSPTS

[8] = target: LNX1_3, Q8TBB1
Sequence of LNX1_3, Q8TBB1 (Q8TBB1 500-596): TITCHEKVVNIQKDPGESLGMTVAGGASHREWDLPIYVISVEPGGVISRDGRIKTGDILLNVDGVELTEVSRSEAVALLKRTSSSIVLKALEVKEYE

[9] = target: T3, APBA2_2, Q99767
T3 sequence (Q99767 654-744, limits assumed, looked up): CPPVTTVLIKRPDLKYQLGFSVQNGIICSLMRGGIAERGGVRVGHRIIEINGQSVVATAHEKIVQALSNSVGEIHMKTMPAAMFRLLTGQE

[10] = target: SCRIB_3, Q14160
Sequence of SCRIB_3, Q14160 (Q14160 999-1103): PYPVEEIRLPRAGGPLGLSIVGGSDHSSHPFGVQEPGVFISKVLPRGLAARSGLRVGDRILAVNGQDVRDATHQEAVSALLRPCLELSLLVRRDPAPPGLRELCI

[11] = target: DLG1_1, Q12959
[12] = target: IL16_1, Q14005
Sequence of IL16_1, Q14005 (Q14005 210-306): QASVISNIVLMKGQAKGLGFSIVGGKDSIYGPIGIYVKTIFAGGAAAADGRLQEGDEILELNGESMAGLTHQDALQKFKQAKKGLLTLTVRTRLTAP

[13] = target: FRMPD4, Q14CM0
Sequence of FRMPD4, Q14CM0 (Q14CM0 67-160): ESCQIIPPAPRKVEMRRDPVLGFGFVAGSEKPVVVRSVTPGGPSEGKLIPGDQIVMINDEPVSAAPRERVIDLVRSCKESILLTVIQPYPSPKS

[14] = target: T4, PCLO, Q9Y6V0
T4 sequence (Q9Y6V0 4491-4600, limits assumed, looked up): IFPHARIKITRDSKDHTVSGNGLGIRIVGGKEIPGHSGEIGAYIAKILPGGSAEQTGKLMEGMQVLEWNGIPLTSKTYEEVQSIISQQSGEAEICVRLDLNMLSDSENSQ

[15] = target: T5, PDZRN3_1, Q9UPQ7
T5 sequence (Q9UPQ7 244-349, limits assumed, looked up): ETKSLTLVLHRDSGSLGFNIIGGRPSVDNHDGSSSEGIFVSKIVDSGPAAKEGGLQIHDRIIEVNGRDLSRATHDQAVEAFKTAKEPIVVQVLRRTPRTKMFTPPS

[16] = target: Inadl_10, Q8NI35
Sequence of Inadl_10, Q8NI35 (Q8NI35 1673-1763): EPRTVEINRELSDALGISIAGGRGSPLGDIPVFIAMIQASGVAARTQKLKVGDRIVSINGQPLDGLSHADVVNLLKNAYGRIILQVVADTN

[17] = target: PTPN3, P26045
Sequence of PTPN3, P26045 (P26045 505-587): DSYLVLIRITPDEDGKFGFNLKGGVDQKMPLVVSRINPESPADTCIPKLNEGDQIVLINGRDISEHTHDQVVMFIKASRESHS

[18] = target: LNX1_1, Q8TBB1
Sequence of LNX1_1, Q8TBB1 (Q8TBB1 261-371): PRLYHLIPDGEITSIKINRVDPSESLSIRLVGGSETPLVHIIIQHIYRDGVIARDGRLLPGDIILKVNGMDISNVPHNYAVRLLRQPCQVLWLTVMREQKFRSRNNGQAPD

[19] = target: T6, MPP2, Q14168
T6 sequence (Q14168 180-250, limits assumed, looked up): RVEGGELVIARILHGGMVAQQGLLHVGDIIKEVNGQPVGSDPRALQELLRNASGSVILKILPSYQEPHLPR

[20] = target: IL16_3, Q14005
Sequence of IL16_3, Q14005 (Q14005 1107-1207): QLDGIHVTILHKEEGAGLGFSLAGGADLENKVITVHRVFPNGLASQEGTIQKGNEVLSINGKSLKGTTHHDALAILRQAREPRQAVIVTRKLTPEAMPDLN

[21] = target: GRIP2_4, Q9C0E4
Sequence of GRIP2_4, Q9C0E4 (Q9C0E4 446-548): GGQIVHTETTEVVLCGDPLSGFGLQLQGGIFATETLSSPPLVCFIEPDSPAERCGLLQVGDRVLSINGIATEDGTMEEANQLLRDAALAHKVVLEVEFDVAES

[22] = target: T7, LNX2_3, Q8N448
T7 sequence (Q8N448 463-564, limits assumed, looked up): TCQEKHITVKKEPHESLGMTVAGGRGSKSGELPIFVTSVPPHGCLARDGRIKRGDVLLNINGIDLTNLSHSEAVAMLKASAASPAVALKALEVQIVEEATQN

[23] = target: T8, ARHGAP21, Q5T5U3
T8 sequence (Q5T5U3 45-169, limits assumed, looked up): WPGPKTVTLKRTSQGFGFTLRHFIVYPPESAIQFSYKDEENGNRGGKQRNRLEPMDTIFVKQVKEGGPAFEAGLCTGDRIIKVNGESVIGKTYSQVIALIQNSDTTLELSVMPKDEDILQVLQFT

[24] = target: MAGI2_4, Q86UL8
Sequence of MAGI2_4, Q86UL8 (Q86UL8 772-865): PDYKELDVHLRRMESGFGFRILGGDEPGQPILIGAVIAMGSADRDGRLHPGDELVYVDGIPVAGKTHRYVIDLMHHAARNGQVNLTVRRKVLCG

[25] = target: DLG4_2, P78352
Sequence of DLG4_2, P78352 (P78352 155-259): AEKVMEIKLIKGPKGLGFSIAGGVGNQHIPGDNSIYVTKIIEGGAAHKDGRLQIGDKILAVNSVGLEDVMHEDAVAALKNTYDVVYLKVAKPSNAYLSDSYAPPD

[26] = target: T9, SNTG1, Q9NSN8
T9 sequence (Q9NSN8 52-150, limits assumed, looked up): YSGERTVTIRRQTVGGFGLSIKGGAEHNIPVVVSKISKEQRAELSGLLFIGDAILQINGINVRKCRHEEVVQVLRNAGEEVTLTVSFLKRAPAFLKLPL

[27] = target: GRIP2_3, Q9C0E4
Sequence of GRIP2_3, Q9C0E4 (Q9C0E4 238-339): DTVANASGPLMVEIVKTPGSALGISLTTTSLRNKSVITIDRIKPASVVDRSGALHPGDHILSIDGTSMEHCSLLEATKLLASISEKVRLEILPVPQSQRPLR

[28] = target: T10, MPP7, Q5T2T1
T10 sequence (Q5T2T1 134-230, limits assumed, looked up): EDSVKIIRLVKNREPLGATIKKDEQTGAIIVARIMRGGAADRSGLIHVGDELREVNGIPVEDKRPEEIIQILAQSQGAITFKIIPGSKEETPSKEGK

[29] = plain residues with an end cap or a label only (N-terminal biotin on a linker: ado-ado)
[30] = plain residues with an end cap or a label only (N-terminal biotin on a linker: ahx)

Sequence of GRID2IP_2, A4D2P6 (A4D2P6 272-370): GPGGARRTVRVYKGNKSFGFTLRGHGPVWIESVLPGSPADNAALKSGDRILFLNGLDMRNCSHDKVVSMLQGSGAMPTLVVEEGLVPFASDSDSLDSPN
Sequence of TJP1_3, Q07157 (Q07157 416-512): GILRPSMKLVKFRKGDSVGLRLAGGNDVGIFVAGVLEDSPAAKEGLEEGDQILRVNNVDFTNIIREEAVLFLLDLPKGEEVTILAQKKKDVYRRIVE
Sequence of GRIP2_5, Q9C0E4 (Q9C0E4 544-642): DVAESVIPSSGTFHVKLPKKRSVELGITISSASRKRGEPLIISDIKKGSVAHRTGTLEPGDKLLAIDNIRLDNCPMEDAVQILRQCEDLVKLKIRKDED

Q: How did the pKd [1, 29] turn out when GEDRSPPTAL [MKNK1, Q9BUB5] was run?
A: below the threshold

Q: What about the pKd [2, 29] of the same binder?
A: below the threshold

Q: And the pKd [3, 29]?
A: below the threshold

Q: And the pKd [4, 29]?
A: 3.71

Q: And the pKd [5, 29]?
A: below the threshold

Q: And the pKd [6, 29]?
A: 4.34

Q: What about the pKd [7, 29] of the same binder?
A: below the threshold

Q: What about the pKd [8, 29] of the same binder?
A: below the threshold

Q: What about the pKd [9, 29] of the same binder?
A: below the threshold

Q: What about the pKd [10, 29] of the same binder?
A: 4.57

Q: What about the pKd [11, 29] of the same binder?
A: below the threshold

Q: What about the pKd [12, 29] of the same binder?
A: below the threshold

Q: And the pKd [13, 29]?
A: 4.01

Q: What about the pKd [14, 29] of the same binder?
A: below the threshold

Q: And the pKd [15, 29]?
A: below the threshold

Q: What about the pKd [16, 29] of the same binder?
A: below the threshold

Q: And the pKd [17, 29]?
A: 4.06

Q: And the pKd [18, 29]?
A: below the threshold

Q: What about the pKd [19, 29] of the same binder?
A: below the threshold

Q: What about the pKd [20, 29] of the same binder?
A: below the threshold

Q: What about the pKd [21, 29] of the same binder?
A: below the threshold

Q: What about the pKd [22, 29] of the same binder?
A: below the threshold

Q: And the pKd [23, 29]?
A: below the threshold

Q: What about the pKd [24, 29] of the same binder?
A: below the threshold

Q: What about the pKd [25, 29] of the same binder?
A: below the threshold

Q: What about the pKd [26, 29] of the same binder?
A: below the threshold

Q: And the pKd [27, 29]?
A: below the threshold

Q: And the pKd [28, 29]?
A: below the threshold

Q: QNTDDVQTSF [ACE2, Q9BYF1] was tested. Which pKd [1, 30] did it give?
A: below the threshold

Q: What about the pKd [2, 30] of the same binder?
A: below the threshold

Q: What about the pKd [3, 30] of the same binder?
A: below the threshold

Q: What about the pKd [4, 30] of the same binder?
A: 4.4

Q: And the pKd [5, 30]?
A: below the threshold

Q: And the pKd [6, 30]?
A: below the threshold

Q: What about the pKd [7, 30] of the same binder?
A: 4.21

Q: What about the pKd [8, 30] of the same binder?
A: below the threshold

Q: What about the pKd [9, 30] of the same binder?
A: below the threshold

Q: What about the pKd [10, 30] of the same binder?
A: below the threshold

Q: What about the pKd [11, 30] of the same binder?
A: below the threshold

Q: And the pKd [12, 30]?
A: below the threshold

Q: What about the pKd [13, 30] of the same binder?
A: 3.67

Q: What about the pKd [14, 30] of the same binder?
A: below the threshold

Q: And the pKd [15, 30]?
A: below the threshold

Q: And the pKd [16, 30]?
A: below the threshold

Q: And the pKd [17, 30]?
A: 4.45

Q: What about the pKd [18, 30] of the same binder?
A: below the threshold

Q: What about the pKd [19, 30] of the same binder?
A: below the threshold

Q: And the pKd [20, 30]?
A: below the threshold

Q: What about the pKd [21, 30] of the same binder?
A: below the threshold

Q: What about the pKd [22, 30] of the same binder?
A: below the threshold

Q: What about the pKd [23, 30] of the same binder?
A: 3.64

Q: What about the pKd [24, 30] of the same binder?
A: below the threshold

Q: What about the pKd [25, 30] of the same binder?
A: below the threshold

Q: And the pKd [26, 30]?
A: below the threshold

Q: What about the pKd [27, 30] of the same binder?
A: below the threshold

Q: And the pKd [28, 30]?
A: below the threshold

Q: LPAVCYDIDI [PTTG2, Q9NZH5] was tested. Which pKd [1, 29] did it give?
A: below the threshold

Q: And the pKd [2, 29]?
A: below the threshold

Q: What about the pKd [3, 29] of the same binder?
A: below the threshold

Q: And the pKd [4, 29]?
A: below the threshold

Q: What about the pKd [5, 29] of the same binder?
A: 4.68

Q: And the pKd [6, 29]?
A: below the threshold

Q: What about the pKd [7, 29] of the same binder?
A: below the threshold

Q: What about the pKd [8, 29] of the same binder?
A: below the threshold

Q: And the pKd [9, 29]?
A: below the threshold

Q: And the pKd [10, 29]?
A: 4.29

Q: And the pKd [11, 29]?
A: below the threshold

Q: What about the pKd [12, 29] of the same binder?
A: below the threshold

Q: And the pKd [13, 29]?
A: below the threshold

Q: What about the pKd [14, 29] of the same binder?
A: below the threshold

Q: And the pKd [15, 29]?
A: below the threshold

Q: And the pKd [16, 29]?
A: below the threshold

Q: And the pKd [17, 29]?
A: 4.22

Q: What about the pKd [18, 29] of the same binder?
A: below the threshold

Q: And the pKd [19, 29]?
A: below the threshold

Q: What about the pKd [20, 29] of the same binder?
A: below the threshold

Q: And the pKd [21, 29]?
A: below the threshold

Q: What about the pKd [22, 29] of the same binder?
A: below the threshold

Q: And the pKd [23, 29]?
A: 4.02

Q: What about the pKd [24, 29] of the same binder?
A: 3.67

Q: What about the pKd [25, 29] of the same binder?
A: below the threshold

Q: What about the pKd [26, 29] of the same binder?
A: 3.64

Q: What about the pKd [27, 29] of the same binder?
A: below the threshold

Q: And the pKd [28, 29]?
A: 4.27

Q: SVTSERETNI [SLC16A7, O60669] was tested. Which pKd [1, 29] did it give?
A: below the threshold

Q: And the pKd [2, 29]?
A: below the threshold

Q: And the pKd [3, 29]?
A: below the threshold

Q: What about the pKd [4, 29] of the same binder?
A: 3.49

Q: What about the pKd [5, 29] of the same binder?
A: below the threshold

Q: And the pKd [6, 29]?
A: below the threshold

Q: And the pKd [7, 29]?
A: below the threshold

Q: And the pKd [8, 29]?
A: below the threshold

Q: What about the pKd [9, 29] of the same binder?
A: below the threshold

Q: And the pKd [10, 29]?
A: 4.93

Q: What about the pKd [11, 29] of the same binder?
A: 3.58

Q: What about the pKd [12, 29] of the same binder?
A: below the threshold

Q: And the pKd [13, 29]?
A: below the threshold

Q: What about the pKd [14, 29] of the same binder?
A: below the threshold

Q: What about the pKd [15, 29] of the same binder?
A: 4

Q: And the pKd [16, 29]?
A: below the threshold

Q: And the pKd [17, 29]?
A: 4.97

Q: And the pKd [18, 29]?
A: below the threshold

Q: What about the pKd [19, 29] of the same binder?
A: below the threshold

Q: What about the pKd [20, 29] of the same binder?
A: below the threshold

Q: And the pKd [21, 29]?
A: below the threshold

Q: And the pKd [22, 29]?
A: below the threshold

Q: What about the pKd [23, 29] of the same binder?
A: below the threshold

Q: What about the pKd [24, 29] of the same binder?
A: below the threshold

Q: What about the pKd [25, 29] of the same binder?
A: 4.11

Q: What about the pKd [26, 29] of the same binder?
A: 4.61

Q: And the pKd [27, 29]?
A: below the threshold

Q: What about the pKd [28, 29] of the same binder?
A: 3.48
